Seven variants from IntAct's records for PubMed 25461530 can be followed below.

The chains are these.
B1: Dipeptidyl peptidase 4 (Homo sapiens), P27487 (parent)
chain: MKTPWKVLLGLLGAAALVTIITVPVVLLNKGTDDATADSRKTYTLTDYLKNTYRLKLYSLRWISDHEYLYKQENNILVFNAEYGNSSVFLENSTFDEFGHSINDYSISPDGQFILLEYNYVKQWRHSYTASYDIYDLNKRQLITEERIPNNTQWVTWSPVGHKLAYVWNNDIYVKIEPNLPSYRITWTGKEDIIYNGITDWVYEEEVFSAYSALWWSPNGTFLAYAQFNDTEVPLIEYSFYSDESLQYPKTVRVPYPKAGAVNPTVKFFVVNTDSLSSVTNATSIQITAPASMLIGDHYLCDVTWATQERISLQWLRRIQNYSVMDICDYDESSGRWNCLVARQHIEMSTTGWVGRFRPSEPHFTLDGNSFYKIISNEEGYRHICYFQIDKKDCTFITKGTWEVIGIEALTSDYLYYISNEYKGMPGGRNLYKIQLSDYTKVTCLSCELNPERCQYYSVSFSKEAKYYQLRCSGPGLPLYTLHSSVNDKGLRVLEDNSALDKMLQNVQMPSKKLDFIILNETKFWYQMILPPHFDKSKKYPLLLDVYAGPCSQKADTVFRLNWATYLASTENIIVASFDGRGSGYQGDKIMHAINRRLGTFEVEDQIEAARQFSKMGFVDNKRIAIWGWSYGGYVTSMVLGSGSGVFKCGIAVAPVSRWEYYDSVYTERYMGLPTPEDNLDHYRNSTVMSRAENFKQVEYLLIHGTADDNVHFQQSAQISKALVDVGVDFQAMWYTDEDHGIASSTAHQHIYTHMSHFIKQCFSLP

The assay covers variants of B1. As to conditions: with spike_mers1 S.
Take K267E: the “effect of a mutation on the interaction” value was “disrupting interaction strength”. As for K267A, the “effect of a mutation on the interaction” value is reported as “disrupting interaction strength”. L294D;I295D: the “effect of a mutation on the interaction” value is “disrupting interaction strength”. Take R317A: the “effect of a mutation on the interaction” value was “decreasing interaction strength”.

As to L294A;I295A, the “effect of a mutation on the interaction” value is recorded as “disrupting interaction strength”. In the case of R336A, the “effect of a mutation on the interaction” value was “decreasing interaction strength”. As for Q344A, the “effect of a mutation on the interaction” value is “with no effect”.
